Key:
Conditions in all cases: tags: R&D Systems; chain copies: 2
[1] = molecular target: T1, NGF (nerve growth factor) (Homo sapiens, UniProt P01138 P01138:122-241); test: SPR; binding maintained
[2] = molecular target: T1, NGF (nerve growth factor); test: SPR; inhibits NGF-receptor binding; inhibits neurite outgrowth at 10 nM
[3] = molecular target: T1, NGF (nerve growth factor); test: SPR; binding maintained on shortening
NT-3 (neurotrophin-3) [4] = molecular target: T2, NT-3 (neurotrophin-3) (Homo sapiens, UniProt P20783 P20783:139-257); test: cell_activity; TF-1 TrkC/p75 cells
T2 sequence: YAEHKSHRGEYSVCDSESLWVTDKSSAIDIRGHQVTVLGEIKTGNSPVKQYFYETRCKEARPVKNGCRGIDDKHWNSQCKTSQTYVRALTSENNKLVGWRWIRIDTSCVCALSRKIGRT
Source text: (§1) Using TF-1 cells, whether NGF aptamer inhibits BDNF, NT-3, NT-4 was examined. Human receptor genes (TrkB, TrkC, p75) for respective neurotrophic factors were introduced into TF-1 cells (ATCC Number: CRL-2003), which is a human erythroleukemic cell line, by using a retrovirus vector to give cells that highly express these receptors stably. TF-1 cells introduced with TrkB and p75 were used for the evaluation of inhibitory activity against BDNF, TF-1 cells introduced with TrkC and p75 were used for the evaluation against NT-3, and TF-1 cells introduced with TrkB alone were used for the evaluation against NT-4. These cells were suspended in an RPMI-1640 medium containing 20% fetal bovine serum, and seeded in a white 96 well flat-bottom plate at 1000 cells (50 μL) per well. Thereto was added a mixed solution 50 μL of human BDNF (final concentration 0.074 nM) or NT-3 (final concentration 0.074 nM) or NT-4 (final concentration 0.071 nM) and the aptamer (final concentration 1 μM-0.01 nM), which had been pre-reacted at room temperature for 30 min in a serum-free RPMI-1640 medium, 3 days later, 100 μL of CellTiter-Glo reagent for CellTiter-Glo Luminescent Cell Viability Assay (manufactured by Promega) was added to each well, chemiluminescence was measured by a microplate reader. With the amount of luminescence per well obtained by the addition of BDNF or NT-3 or NT-4 alone and culture of the cells for 3 days as inhibitory activity 0%, and that of the well obtained by culture for 3 days without addition of BDNF or NT-3 or NT-4 as inhibitory activity 100%, the inhibitory activity of the aptamer was calculated from the amount of luminescence per well obtained by culturing with the addition of BDNF or NT-3 or NT-4 and the aptamer in mixture. When the inhibitory activity was 0 or below, ‘0%’ is indicated. The 50% inhibitory concentration (IC₅₀) was determined from the concentrations at two, above and below points sandwiching the 50% inhibitory activity. An IC₅₀ value indicated as “>X” means that the inhibitory activity was not more than 50% when the indicated concentration X was the maximum measured concentration. N.D. means not measured.

NT-4 (neurotrophin-4) [5] = molecular target: T3, NT-4 (neurotrophin-4) (Homo sapiens, UniProt P34130 P34130:81-210); test: cell_activity; TF-1 TrkB cells
T3 sequence: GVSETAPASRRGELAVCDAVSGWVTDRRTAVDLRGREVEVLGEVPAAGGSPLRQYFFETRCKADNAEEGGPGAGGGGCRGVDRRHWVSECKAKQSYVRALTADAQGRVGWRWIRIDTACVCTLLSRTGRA
Source text: Using TF-1 cells, whether NGF aptamer inhibits BDNF, NT-3, NT-4 was examined. Human receptor genes (TrkB, TrkC, p75) for respective neurotrophic factors were introduced into TF-1 cells (ATCC Number: CRL-2003), which is a human erythroleukemic cell line, by using a retrovirus vector to give cells that highly express these receptors stably. TF-1 cells introduced with TrkB and p75 were used for the evaluation of inhibitory activity against BDNF, TF-1 cells introduced with TrkC and p75 were used for the evaluation against NT-3, and TF-1 cells introduced with TrkB alone were used for the evaluation against NT-4. These cells were suspended in an RPMI-1640 medium containing 20% fetal bovine serum, and seeded in a white 96 well flat-bottom plate at 1000 cells (50 μL) per well. Thereto was added a mixed solution 50 μL of human BDNF (final concentration 0.074 nM) or NT-3 (final concentration 0.074 nM) or NT-4 (final concentration 0.071 nM) and the aptamer (final concentration 1 μM-0.01 nM), which had been pre-reacted at room temperature for 30 min in a serum-free RPMI-1640 medium, 3 days later, 100 μL of CellTiter-Glo reagent for CellTiter-Glo Luminescent Cell Viability Assay (manufactured by Promega) was added to each well, chemiluminescence was measured by a microplate reader. With the amount of luminescence per well obtained by the addition of BDNF or NT-3 or NT-4 alone and culture of the cells for 3 days as inhibitory activity 0%, and that of the well obtained by culture for 3 days without addition of BDNF or NT-3 or NT-4 as inhibitory activity 100%, the inhibitory activity of the aptamer was calculated from the amount of luminescence per well obtained by culturing with the addition of BDNF or NT-3 or NT-4 and the aptamer in mixture. […] The 50% inhibitory concentration (IC₅₀) was determined from the concentrations at two, above and below points sandwiching the 50% inhibitory activity. An IC₅₀ value indicated as “>X” means that the inhibitory activity was not more than 50% when the indicated concentration X was the maximum measured concentration. N.D. means not measured.

[6] = molecular target: T1, NGF (nerve growth factor); test: cell_activity; TF-1 cell proliferation inhibition
Experimental: (§2) Two NGF receptor (human TrkA and human p75) genes were introduced into TF-1 cells (ATCC Number: CRL-2003), which is a human erythroleukemic cell line, by using a retrovirus vector to give cells that highly express two receptors simultaneously and stably. The cells were suspended in an RPMI-1640 medium containing 20% fetal bovine serum, and seeded in a white 96 well flat-bottom plate at 1000 cells (50 μL) per well. […] With the amount of luminescence per well obtained by the addition of NGF alone and culture of the cells for 3 days as inhibitory activity 0%, and that of the well obtained by NGF free culture for 3 days as inhibitory activity 100%, the inhibitory activity of the aptamer was calculated from the amount of luminescence per well obtained by culturing with the addition of NGF and the aptamer in mixture.

[7] = molecular target: T1, NGF (nerve growth factor); test: cell_activity; neurite outgrowth inhibition
Experimental: The cells (2500 cells per well) were cultured for one day in an RPMI-1640 medium containing 2.5% horse serum and 1.25% fetal bovine serum in a 96 well flat-bottom plate coated with collagen type IV. […] Two days later, the cytoplasm and nuclei were stained using Cellomics Neurite Outgrowth Kit (manufactured by Thermo Scientific), and neurite length per cell was measured by Cellomics ArrayScan VTI (manufactured by Thermo Scientific). With the neurite length per cell obtained by the addition of NGF alone as inhibitory activity 0%, and that of the cell obtained by NGF free culture for 2 days as inhibitory activity 100%, the inhibitory activity of the aptamer was calculated from the neurite length per cell obtained by culturing with the addition of NGF and the aptamer in mixture.

NT-3 (neurotrophin-3) [8] = molecular target: T2, NT-3 (neurotrophin-3); test: cell_activity; TF-1
Source text: as §1

[9] = molecular target: T1, NGF (nerve growth factor); test: cell_activity; neurite; TF-1 0.084
Experimental: With the neurite length per cell obtained by the addition of NGF alone as inhibitory activity 0%, and that of the cell obtained by NGF free culture for 2 days as inhibitory activity 100%, the inhibitory activity of the aptamer was calculated from the neurite length per cell obtained by culturing with the addition of NGF and the aptamer in mixture.
as §2

[10] = molecular target: T1, NGF (nerve growth factor); test: cell_activity; neurite; TF-1 0.037
[11] = molecular target: T1, NGF (nerve growth factor); test: cell_activity; neurite; TF-1 0.022
[12] = molecular target: T1, NGF (nerve growth factor); test: cell_activity; neurite; TF-1 <0.03
NT-4 (neurotrophin-4) [13] = molecular target: T3, NT-4 (neurotrophin-4); test: cell_activity; TF-1
Source text: as §1

[14] = molecular target: T1, NGF (nerve growth factor); test: cell_activity; neurite; TF-1 0.034

T1 sequence (P01138 122-241, one chain of several): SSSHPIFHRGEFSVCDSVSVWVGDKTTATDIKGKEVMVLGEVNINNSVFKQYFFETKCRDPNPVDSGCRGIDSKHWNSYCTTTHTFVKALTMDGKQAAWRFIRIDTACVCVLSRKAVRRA

**Q.** Does GGGUCCUGCUGCGUAGUUUCCGUCUUCGCGGUUGUUACCC (ssRNA, 2'-F C/U, dA, 2'-OH G) [SEQ ID NO: 75] bind [1]?
**A.** binds

**Q.** Does GGGUCCUGCUACGGAGUUUCCGUCUCGGUGGCUGUUACCC (ssRNA, 2'-F C/U, dA, 2'-OH G) [SEQ ID NO: 65] bind [1]?
**A.** binds

**Q.** Does GGGUCCUGUUGCGUAGUUUCCGUCUGCGUGGCUGUUACCC (ssRNA, 2'-F C/U, dA, 2'-OH G) [SEQ ID NO: 69] bind [1]?
**A.** binds

B1: SEQ ID NO: 6 (ssRNA)
RNA: GGGAGAACUUCGACCAGAAGUGCAAUACUUUCGCGGCAUAUGUGCAAACCUUGCCACGACUAUGUGCGCAUACAUGGAUCCUC
modifications: 2'-F C and U; 2'-OH G; 2'-H (deoxy) A
**Q.** Does B1 bind [2]?
**A.** binds

**Q.** Does GGGUCCUGACCAAGAGUUUCCGUCUCGUGGUCUGUACCC (ssRNA, 2'-F C and U; 2'-OH G; 2'-H (deoxy) A) [SEQ ID NO: 92] bind [3]?
**A.** binds

B2: SEQ ID NO: 82(16) (ssRNA)
RNA: GGGUCCUGGAUAAGAGUUUCCGUCUCGUAUCCUGUUACCC
modifications: 2'-F C and U except C38; 2'-OMe G1-3,G9,G14,G16,G22,G27,C38; 2'-OH G8,G34; 2'-H A; idT 5' and 3'
**Q.** B2 was tested. Which IC50 (NT-3 (neurotrophin-3) [4]) did it give?
**A.** 34.4 nM

**Q.** And the IC50 (NT-4 (neurotrophin-4) [5])?
**A.** < 3 nM

**Q.** What about the IC50 [6] of the same binder?
**A.** 0.026 nM

B3: SEQ ID NO: 82(25) (ssRNA)
RNA: B2 RNA
modifications: 2'-F C5,U7,U17,U18,U19,C20,C24,U25,U33,U36; 2'-OH G8,G34; 2'-H A; 2'-OMe all other; idT 5' and 3'
**Q.** B3 was tested. Which IC50 (NT-3 (neurotrophin-3) [4]) did it give?
**A.** 2.15 nM

**Q.** What about the IC50 [7] of the same binder?
**A.** < 0.1 nM

**Q.** And the IC50 (NT-4 (neurotrophin-4) [5])?
**A.** 40.4 nM

**Q.** And the IC50 [6]?
**A.** 0.085 nM

**Q.** What does the source list for GGGUCCUGGAUAAGAGUUUCCGUCUCGUAUCCUGUUACCC (ssRNA, as 82(1) except 2'-OMe U4,C6,U11,C21,U23,U28,U30,C31,C32,U35,C38-40) [SEQ ID NO: 82(24)]?
**A.** IC50 (NT-3 (neurotrophin-3) [8]): < 30 nM; IC50 [9]: < 0.1 nM

**Q.** How did the IC50 [10] turn out when GGGUCCUGGAUAAGAGTUUCCGUCUCGUAUCCTGUUACCC (ssRNA, as 82(48) except dT17,dT33,dU36) [SEQ ID NO: 166] was run?
**A.** 0.113 nM

**Q.** Which IC50 [11] does the source give for GGGUCCUGGAUAAGAGUUUCCGUCUCGUAUCCUGUUACCC (ssRNA, as 82(25) except 2'-OMe A37) [SEQ ID NO: 82(47)] here?
**A.** 0.046 nM

**Q.** How did the IC50 [12] turn out when GGGUCCUGGUUAAGAGUUUCCGUCUCGUAACCUGUUACCC (ssRNA, 2'-OMe G (G8,G34 2'-OH), dA, 2'-F C/U; 5',3' idT) [SEQ ID NO: 79(1)] was run?
**A.** 0.289 nM

**Q.** How did the IC50 (NT-3 (neurotrophin-3) [8]) turn out when GGGUCCUGGAUAAGAGUUUCCGUCUCGUAUCCUGUUACCC (ssRNA, as 82(1) except 2'-OMe C32) [SEQ ID NO: 82(13)] was run?
**A.** 48.8 nM

**Q.** And the IC50 (NT-4 (neurotrophin-4) [13])?
**A.** 3.06 nM

**Q.** And the IC50 [14]?
**A.** 0.146 nM

**Q.** GGGUCCUGGAUAAGAGUUUCCGUCUCGUAUCCUGUUACCC (ssRNA, as 82(1) except 2'-OMe C21) [SEQ ID NO: 82(6)] was tested. Which IC50 (NT-3 (neurotrophin-3) [8]) did it give?
**A.** < 30 nM

**Q.** And the IC50 (NT-4 (neurotrophin-4) [13])?
**A.** < 3 nM

**Q.** What about the IC50 [14] of the same binder?
**A.** 0.128 nM

Reference: patent US20140235701, “NGF APTAMER AND APPLICATION THEREOF” (RIBOMIC INC., published 2014)
